Measurements reported in article PMC5490261, “The structural and functional characterization of human RecQ4 reveals insights into its helicase mechanism”.

Experiments:
Assay in all cases: fluorescence polarization; WT-like affinity; figure values not assignable from text layer; 20 mM HEPES pH 8.0, 10 mM NaCl, 5% glycerol, 1 mM MgCl2, 0.5 mM TCEP, 0.5 nM Cy3-ssDNA; temperature not stated
Settings in all cases: protein: recombinant; tags: Trx-His6 removed by 3C protease; label: 5' Cy3
RecQ4 427-1208 W613L = molecular target: T1, RecQ4 427-1208 W613L (Homo sapiens, UniProt O94761 427-1208, W613L)
T1 sequence: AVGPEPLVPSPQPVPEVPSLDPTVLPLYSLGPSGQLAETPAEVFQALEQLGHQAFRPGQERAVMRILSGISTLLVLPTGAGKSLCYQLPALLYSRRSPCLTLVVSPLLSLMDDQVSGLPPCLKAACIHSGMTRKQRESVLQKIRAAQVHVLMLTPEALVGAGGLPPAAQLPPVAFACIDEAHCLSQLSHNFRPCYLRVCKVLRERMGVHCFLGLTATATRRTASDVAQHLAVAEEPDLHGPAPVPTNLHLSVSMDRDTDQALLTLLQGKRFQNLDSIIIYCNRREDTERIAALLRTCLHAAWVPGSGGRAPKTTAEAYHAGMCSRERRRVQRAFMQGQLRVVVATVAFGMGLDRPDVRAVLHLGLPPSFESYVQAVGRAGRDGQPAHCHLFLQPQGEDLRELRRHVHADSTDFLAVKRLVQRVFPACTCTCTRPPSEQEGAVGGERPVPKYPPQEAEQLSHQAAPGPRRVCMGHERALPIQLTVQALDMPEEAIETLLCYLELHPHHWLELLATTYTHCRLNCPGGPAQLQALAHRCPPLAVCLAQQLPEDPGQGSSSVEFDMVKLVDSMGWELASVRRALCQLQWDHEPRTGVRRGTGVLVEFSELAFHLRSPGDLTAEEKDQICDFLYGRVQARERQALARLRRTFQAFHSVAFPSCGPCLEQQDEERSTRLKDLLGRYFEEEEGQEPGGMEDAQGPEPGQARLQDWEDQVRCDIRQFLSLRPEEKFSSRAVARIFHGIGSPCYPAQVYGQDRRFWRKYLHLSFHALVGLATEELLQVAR

RecQ4 427-1208 H615L = molecular target: T2, RecQ4 427-1208 H615L (Homo sapiens, UniProt O94761 427-1208, H615L)
T2 sequence: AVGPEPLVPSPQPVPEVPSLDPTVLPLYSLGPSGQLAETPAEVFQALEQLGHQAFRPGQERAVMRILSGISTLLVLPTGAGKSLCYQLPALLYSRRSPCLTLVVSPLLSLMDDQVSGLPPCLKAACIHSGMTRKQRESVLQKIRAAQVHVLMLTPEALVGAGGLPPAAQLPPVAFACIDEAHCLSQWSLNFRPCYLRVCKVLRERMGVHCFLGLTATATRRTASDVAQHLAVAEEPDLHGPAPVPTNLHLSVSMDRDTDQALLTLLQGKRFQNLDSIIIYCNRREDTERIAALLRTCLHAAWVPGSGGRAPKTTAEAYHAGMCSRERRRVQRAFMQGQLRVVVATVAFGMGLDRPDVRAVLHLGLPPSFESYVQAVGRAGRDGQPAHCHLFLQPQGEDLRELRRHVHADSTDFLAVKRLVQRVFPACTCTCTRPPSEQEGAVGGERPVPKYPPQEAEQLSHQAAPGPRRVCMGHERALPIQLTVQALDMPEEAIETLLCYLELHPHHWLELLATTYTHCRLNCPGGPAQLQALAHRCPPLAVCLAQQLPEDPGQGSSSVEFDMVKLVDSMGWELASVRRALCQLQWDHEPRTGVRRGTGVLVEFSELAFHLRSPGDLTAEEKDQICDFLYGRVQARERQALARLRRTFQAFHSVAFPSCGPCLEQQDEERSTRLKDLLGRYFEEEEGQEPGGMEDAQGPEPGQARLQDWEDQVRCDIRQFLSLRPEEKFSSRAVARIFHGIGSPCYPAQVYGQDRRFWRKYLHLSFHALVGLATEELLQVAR

RecQ4 427-1208 F617L = molecular target: T3, RecQ4 427-1208 F617L (Homo sapiens, UniProt O94761 427-1208, F617L)
T3 sequence: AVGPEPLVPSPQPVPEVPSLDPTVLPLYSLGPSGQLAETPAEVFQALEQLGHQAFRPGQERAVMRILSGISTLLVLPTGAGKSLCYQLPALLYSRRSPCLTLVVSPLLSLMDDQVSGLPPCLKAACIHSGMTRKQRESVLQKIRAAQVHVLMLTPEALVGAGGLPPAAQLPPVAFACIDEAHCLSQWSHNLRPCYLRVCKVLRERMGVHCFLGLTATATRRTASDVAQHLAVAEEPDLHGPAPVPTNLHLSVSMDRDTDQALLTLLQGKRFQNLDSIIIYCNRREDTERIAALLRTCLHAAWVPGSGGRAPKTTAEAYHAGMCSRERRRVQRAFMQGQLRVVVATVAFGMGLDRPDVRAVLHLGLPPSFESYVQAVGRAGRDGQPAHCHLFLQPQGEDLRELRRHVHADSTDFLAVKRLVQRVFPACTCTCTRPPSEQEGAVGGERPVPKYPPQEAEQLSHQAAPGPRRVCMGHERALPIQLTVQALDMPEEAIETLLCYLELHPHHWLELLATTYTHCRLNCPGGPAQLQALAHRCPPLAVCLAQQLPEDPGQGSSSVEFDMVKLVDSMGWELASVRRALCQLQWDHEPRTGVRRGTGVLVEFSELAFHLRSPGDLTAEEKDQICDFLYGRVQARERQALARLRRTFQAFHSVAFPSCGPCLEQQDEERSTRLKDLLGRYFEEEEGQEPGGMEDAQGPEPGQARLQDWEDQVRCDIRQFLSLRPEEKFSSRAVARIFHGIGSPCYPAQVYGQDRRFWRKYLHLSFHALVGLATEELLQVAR

Measured: binding result

B1: T3-Cy3 (ssDNA)
DNA: CCATTCCACCCTCTATTTTTTTTTTTTTTT
binds: RecQ4 427-1208 W613L | RecQ4 427-1208 H615L | RecQ4 427-1208 F617L
